Target: T1, transforming growth factor beta 1 (UniProt P01137 279-390)
T1 construct: Transforming growth factor beta 1 (TGFβ1), the mature growth factor cut from its precursor; The source of the TGFβ1 is told only for the cell assays (PeproTech); also called TGFβ1; TGFβ; source: bought: PeproTech (cell assays)
Assay: SPR; BIAcore 3000; which partner was immobilised and the conditions are not given
Settings: both partners purified

T1 sequence (P01137 279-390): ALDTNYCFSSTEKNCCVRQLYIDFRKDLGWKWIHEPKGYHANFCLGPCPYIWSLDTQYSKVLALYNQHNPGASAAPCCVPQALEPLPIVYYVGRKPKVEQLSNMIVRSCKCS

Kd: 2320 nM
B1: Leucine-rich α2-glycoprotein (natural protein)
chain: LKECLILQSAEGSTVSCHGPTEFPSSLPADTVHLSVEFSNLTQLPAAALQGCPGLRELHLSSNRLQALSPELLAPVPRLRALDLTRNALRSLPPGLFSTSANLSTLVLRENQLREVSAQWLQGLDALGHLDLAENQLSSLPSGLLASLGALHTLDLGYNLLESLPEGLLRGPRRLQRLHLEGNRLQRLEDSLLAPQPFLRVLFLNDNQLVGVATGSFQGLQHLDMLDLSNNSLSSTPPGLWAFLGRPTRDMQDGFDISHNPWICDKNLADLCRWLVANRNKMFSQNDTRCAGPEAMKGQRLLDVAELGSL
